Where “and” joins values, the source holds several entries; their conditions need not be identical. Identical values can stand only once.
What was measured:
FHCS-2 (RSV strain A2) [1] = molecular target: FHCS-2 (RSV strain A2) (UniProt P03420); assay: ELISA; F coated 312.5 ng/ml; stored -80° C.
FHCS-4 (RSV strain A2) [2] = molecular target: FHCS-4 (RSV strain A2) (UniProt P03420); assay: ELISA; F coated 312.5 ng/ml; stored -80° C.
FHCS-1 (RSV strain A2) [3] = molecular target: FHCS-1 (RSV strain A2) (UniProt P03420); assay: ELISA; F coated 2500 ng/ml; stored 37° C. 4 W
FHCS-2 (RSV strain A2) [4] = molecular target: FHCS-2 (RSV strain A2) (UniProt P03420); assay: ELISA; F coated 2500 ng/ml; stored 37° C. 4 W
FHCS-4 (RSV strain A2) [5] = molecular target: FHCS-4 (RSV strain A2) (UniProt P03420); assay: ELISA; F coated 2500 ng/ml; stored 37° C. 4 W
FHCS-1 (RSV strain A2) [6] = molecular target: FHCS-1 (RSV strain A2) (UniProt P03420); assay: ELISA; F coated 625 ng/ml; stored 37° C. 4 W
FHCS-2 (RSV strain A2) [7] = molecular target: FHCS-2 (RSV strain A2) (UniProt P03420); assay: ELISA; F coated 625 ng/ml; stored 37° C. 4 W
FHCS-4 (RSV strain A2) [8] = molecular target: FHCS-4 (RSV strain A2) (UniProt P03420); assay: ELISA; F coated 625 ng/ml; stored 37° C. 4 W
FHCS-1 (RSV strain A2) [9] = molecular target: FHCS-1 (RSV strain A2) (UniProt P03420); assay: ELISA; F coated 625 ng/ml; stored -80° C.
FHCS-2 (RSV strain A2) [10] = molecular target: FHCS-2 (RSV strain A2) (UniProt P03420); assay: ELISA; F coated 625 ng/ml; stored -80° C.
FHCS-4 (RSV strain A2) [11] = molecular target: FHCS-4 (RSV strain A2) (UniProt P03420); assay: ELISA; F coated 625 ng/ml; stored -80° C.
FHCS-1 (RSV strain A2) [12] = molecular target: FHCS-1 (RSV strain A2) (UniProt P03420); assay: ELISA; F coated 1250 ng/ml; stored 37° C. 4 W
FHCS-2 (RSV strain A2) [13] = molecular target: FHCS-2 (RSV strain A2) (UniProt P03420); assay: ELISA; F coated 1250 ng/ml; stored 37° C. 4 W
FHCS-4 (RSV strain A2) [14] = molecular target: FHCS-4 (RSV strain A2) (UniProt P03420); assay: ELISA; F coated 1250 ng/ml; stored 37° C. 4 W
FHCS-1 (RSV strain A2) [15] = molecular target: FHCS-1 (RSV strain A2) (UniProt P03420); assay: ELISA; F coated 2500 ng/ml; stored -80° C.
FHCS-2 (RSV strain A2) [16] = molecular target: FHCS-2 (RSV strain A2) (UniProt P03420); assay: ELISA; F coated 2500 ng/ml; stored -80° C.
FHCS-4 (RSV strain A2) [17] = molecular target: FHCS-4 (RSV strain A2) (UniProt P03420); assay: ELISA; F coated 2500 ng/ml; stored -80° C.
FHCS-1 (RSV strain A2) [18] = molecular target: FHCS-1 (RSV strain A2) (UniProt P03420); assay: ELISA; F coated 312.5 ng/ml; stored 37° C. 4 W
FHCS-2 (RSV strain A2) [19] = molecular target: FHCS-2 (RSV strain A2) (UniProt P03420); assay: ELISA; F coated 312.5 ng/ml; stored 37° C. 4 W
FHCS-4 (RSV strain A2) [20] = molecular target: FHCS-4 (RSV strain A2) (UniProt P03420); assay: ELISA; F coated 312.5 ng/ml; stored 37° C. 4 W
FHCS-1 (RSV strain A2) [21] = molecular target: FHCS-1 (RSV strain A2) (UniProt P03420); assay: ELISA; F coated 2500 ng/ml; stored -80° C.; remark: listed apart in the source
FHCS-2 (RSV strain A2) [22] = molecular target: FHCS-2 (RSV strain A2) (UniProt P03420); assay: ELISA; F coated 2500 ng/ml; stored -80° C.; remark: listed apart in the source
FHCS-4 (RSV strain A2) [23] = molecular target: FHCS-4 (RSV strain A2) (UniProt P03420); assay: ELISA; F coated 2500 ng/ml; stored -80° C.; remark: listed apart in the source
FHCS-1 (RSV strain A2) [24] = molecular target: FHCS-1 (RSV strain A2) (UniProt P03420); assay: ELISA; F coated 1250 ng/ml; stored -80° C.
FHCS-2 (RSV strain A2) [25] = molecular target: FHCS-2 (RSV strain A2) (UniProt P03420); assay: ELISA; F coated 1250 ng/ml; stored -80° C.
FHCS-4 (RSV strain A2) [26] = molecular target: FHCS-4 (RSV strain A2) (UniProt P03420); assay: ELISA; F coated 1250 ng/ml; stored -80° C.
FHCS-1 (RSV strain A2) [27] = molecular target: FHCS-1 (RSV strain A2) (UniProt P03420); assay: ELISA; F coated 78.13 ng/ml; stored -80° C.
FHCS-2 (RSV strain A2) [28] = molecular target: FHCS-2 (RSV strain A2) (UniProt P03420); assay: ELISA; F coated 78.13 ng/ml; stored -80° C.
FHCS-4 (RSV strain A2) [29] = molecular target: FHCS-4 (RSV strain A2) (UniProt P03420); assay: ELISA; F coated 78.13 ng/ml; stored -80° C.
FHCS-2 (RSV strain A2) [30] = molecular target: FHCS-2 (RSV strain A2) (UniProt P03420); assay: ELISA; F coated 78.13 ng/ml; stored -80° C.; remark: listed apart in the source
FHCS-4 (RSV strain A2) [31] = molecular target: FHCS-4 (RSV strain A2) (UniProt P03420); assay: ELISA; F coated 78.13 ng/ml; stored -80° C.; remark: listed apart in the source
FHCS-1 (RSV strain A2) [32] = molecular target: FHCS-1 (RSV strain A2) (UniProt P03420); assay: ELISA; F coated 2500 ng/ml; stored -80° C.; remark: listed apart in the source
FHCS-2 (RSV strain A2) [33] = molecular target: FHCS-2 (RSV strain A2) (UniProt P03420); assay: ELISA; F coated 2500 ng/ml; stored -80° C.; remark: listed apart in the source
FHCS-4 (RSV strain A2) [34] = molecular target: FHCS-4 (RSV strain A2) (UniProt P03420); assay: ELISA; F coated 2500 ng/ml; stored -80° C.; remark: listed apart in the source
FHCS-1 (RSV strain A2) [35] = molecular target: FHCS-1 (RSV strain A2) (UniProt P03420); assay: ELISA; F coated 1250 ng/ml; stored -80° C.; remark: listed apart in the source
FHCS-2 (RSV strain A2) [36] = molecular target: FHCS-2 (RSV strain A2) (UniProt P03420); assay: ELISA; F coated 1250 ng/ml; stored -80° C.; remark: listed apart in the source
FHCS-4 (RSV strain A2) [37] = molecular target: FHCS-4 (RSV strain A2) (UniProt P03420); assay: ELISA; F coated 1250 ng/ml; stored -80° C.; remark: listed apart in the source

Substance | OD value (FHCS-2 (RSV strain A2) [1]) | OD value (FHCS-4 (RSV strain A2) [2]) | OD value (FHCS-1 (RSV strain A2) [3]) | OD value (FHCS-2 (RSV strain A2) [4]) | OD value (FHCS-4 (RSV strain A2) [5]) | OD value (FHCS-1 (RSV strain A2) [6]) | OD value (FHCS-2 (RSV strain A2) [7]) | OD value (FHCS-4 (RSV strain A2) [8]) | OD value (FHCS-1 (RSV strain A2) [9]) | OD value (FHCS-2 (RSV strain A2) [10]) | OD value (FHCS-4 (RSV strain A2) [11]) | OD value (FHCS-1 (RSV strain A2) [12]) | OD value (FHCS-2 (RSV strain A2) [13]) | OD value (FHCS-4 (RSV strain A2) [14]) | OD value (FHCS-1 (RSV strain A2) [15]) | OD value (FHCS-2 (RSV strain A2) [16]) | OD value (FHCS-4 (RSV strain A2) [17]) | OD value (FHCS-1 (RSV strain A2) [18]) | OD value (FHCS-2 (RSV strain A2) [19]) | OD value (FHCS-4 (RSV strain A2) [20]) | further results
AM14 monoclonal antibody | 0.005 OD | 0.004 OD and 0.007 OD | 0.109 OD and 0.096 OD | 0.45 OD and 0.185 OD | 0.045 OD and 0.019 OD | 0.006 OD and 0.008 OD | 0.005 OD and 0.006 OD | 0.006 OD and 0.007 OD | 0.003 OD and 0.005 OD | 0.005 OD and 0.006 OD | 0.007 OD | 0.018 OD and 0.024 OD | 0.025 OD and 0.019 OD | 0.007 OD and 0.008 OD | 0.021 OD and 0.03 OD | 0.02 OD and 0.024 OD | 0.04 OD and 0.028 OD | 0.005 OD | 0.005 OD | 0.004 OD and 0.007 OD | OD value (FHCS-1 (RSV strain A2) [21]): 0.034 OD and 0.039 OD; OD value (FHCS-2 (RSV strain A2) [22]): 0.051 OD and 0.056 OD; OD value (FHCS-4 (RSV strain A2) [23]): 0.008 OD and 0.007 OD; OD value (FHCS-1 (RSV strain A2) [24]): 0.006 OD; OD value (FHCS-2 (RSV strain A2) [25]): 0.009 OD and 0.013 OD; OD value (FHCS-4 (RSV strain A2) [26]): 0.013 OD and 0.011 OD
Synagis® (antibody) | 0.089 OD and 0.108 OD | 0.052 OD and 0.033 OD | 1.91 OD and 2.11 OD | 1.82 OD and 1.84 OD | 1.8 OD and 1.78 OD | 0.324 OD and 0.612 OD | 0.42 OD and 0.4 OD | 0.378 OD and 0.389 OD | 0.17 OD and 0.181 OD | 0.209 OD and 0.208 OD | 0.094 OD and 0.066 OD | 1.17 OD and 1.22 OD | 0.995 OD and 0.91 OD | 1.05 OD and 0.985 OD | 1.35 OD | 1.65 OD and 1.91 OD | 0.825 OD and 0.743 OD | 0.142 OD and 0.168 OD | 0.154 OD and 0.143 OD | 0.138 OD and 0.12 OD | OD value (FHCS-1 (RSV strain A2) [27]): 0.009 OD and 0.01 OD; OD value (FHCS-2 (RSV strain A2) [28]): 0.014 OD and 0.015 OD; OD value (FHCS-4 (RSV strain A2) [29]): 0.009 OD and 0.011 OD; OD value (FHCS-2 (RSV strain A2) [30]): 0.016 OD; OD value (FHCS-4 (RSV strain A2) [31]): 0.008 OD; OD value (FHCS-1 (RSV strain A2) [32]): 1.5 OD and 1.61 OD; OD value (FHCS-2 (RSV strain A2) [33]): 1.78 OD and 1.8 OD; OD value (FHCS-4 (RSV strain A2) [34]): 0.947 OD and 0.991 OD; OD value (FHCS-1 (RSV strain A2) [35]): 0.635 OD and 0.642 OD; OD value (FHCS-2 (RSV strain A2) [36]): 0.928 OD; OD value (FHCS-4 (RSV strain A2) [37]): 0.321 OD and 0.328 OD; OD value (FHCS-1 (RSV strain A2) [24]): 0.357 OD and 0.35 OD; OD value (FHCS-2 (RSV strain A2) [25]): 0.572 OD and 0.767 OD; OD value (FHCS-4 (RSV strain A2) [26]): 0.252 OD and 0.209 OD

From patent US20260117202A1
